# Results from paper PMC11359509, “Anti-Skin Aging Potential, Antibacterial Activity, Inhibition of Single-Stranded DNA-Binding Protein, and Cytotoxic Effects of Acetone-Extracted Passiflora edulis (Tainung No. 1) Rind Extract on Oral”.
# B1: dT35 (ssDNA)
# DNA: TTTTTTTTTTTTTTTTTTTTTTTTTTTTTTTTTTT
# Target: KpSSB (single-stranded DNA-binding protein) (Klebsiella pneumoniae, UniProt A6TGW7 1-174)
# Experiment: EMSA; no extract; [Protein]50; 40 mM Tris-HCl pH 7.5, 50 mM NaCl, 37 °C, 60 min; 30 fmol/uL biotinylated ssDNA; 8% native PAGE in TBE
# Conditions: protein: recombinant, tag not described, chain copies: 4
# KpSSB (single-stranded DNA-binding protein), sequence (A6TGW7 whole entry): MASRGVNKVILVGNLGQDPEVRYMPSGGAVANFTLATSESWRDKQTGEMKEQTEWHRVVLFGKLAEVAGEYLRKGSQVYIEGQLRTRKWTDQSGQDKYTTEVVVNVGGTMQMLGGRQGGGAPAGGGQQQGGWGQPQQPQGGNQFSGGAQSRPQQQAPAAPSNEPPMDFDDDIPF
binder,measurement,value
B1,apparent K (half saturation),206 ± 14.3 nM
